Test results reported in article PMC11573612 (Molecular Therapy, 2024).

What was measured:
[1] = target: T1, PD-L1 of the PD-1 [Biotinylated]: PD-L1 Inhibitor Screening ELISA Assay Pair (Acro Biosystems EP-101) (UniProt Q9NZQ7 19-238); assay: ELISA; competition: PD-1 [Biotinylated]: PD-L1 Inhibitor Screening ELISA Assay Pair (Acro Biosystems EP-101) with recombinant VSTM2A as inhibitor; settings: both partners purified
T1 construct: PD-L1 of a bought ELISA assay pair; The construct is described only by the kit's manufacturer; source: bought: Acro Biosystems (EP-101 assay pair)
T1 sequence (Q9NZQ7 19-238): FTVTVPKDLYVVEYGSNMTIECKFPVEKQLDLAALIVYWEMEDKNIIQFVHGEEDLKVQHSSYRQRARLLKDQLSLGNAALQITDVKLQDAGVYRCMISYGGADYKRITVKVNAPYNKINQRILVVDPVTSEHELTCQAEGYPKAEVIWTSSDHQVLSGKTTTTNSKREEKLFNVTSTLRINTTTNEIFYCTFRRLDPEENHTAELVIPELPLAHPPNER

[2] = target: T2, Recombinant human PD-L1 Fc chimera protein (R&D Systems 156-B7) (human, UniProt Q9NZQ7 19-238); assay: ELISA; titration ELISA; 5 μg/mL PD-L1 Fc chimera immobilised on the plate at 4 °C for 12 h, blocked with 5% BSA; VSTM2A serial dilution (start 100 μg/mL) for 2 h at room temperature; fixed with DTSSP; pNPP, OD405; one-site specific binding fit; apparent KD; settings: both partners purified
T2 construct: PD-L1, human, recombinant Fc chimera; also called recombinant human PD-L1 chimera protein; source: bought: R&D Systems (156-B7)
T2 sequence (Q9NZQ7 19-238, change not shown): as the sequence (Q9NZQ7 19-238) above

B1: Recombinant human VSTM2A His-tag protein (R&D Systems 10037-VT-050, carrier-free) (ligand, UniProt Q8TAG5 25-236, looked up)
chain: SQAKFTEFPRNVTATEGQNVEMSCAFQSGSASVYLEIQWWFLRGPEDLDPGAEGAGAQVELLPDRDPDSDGTKISTVKVQGNDISHKLQISKVRKKDEGLYECRVTDANYGELQEHKAQAYLKVNANSHARRMQAFEASPMWLQDMKPRKNVSAAIPSSIHGSANQRTHSTSSPQVVAKIPKQSPQSGARIATSHGLSVLLLVCGFVKGALL
notes: VSTM2A, human, recombinant; also called recombinant VSTM2A; VSTM2A recombinant protein; source: bought: R&D Systems (10037-VT-050, carrier-free version)
IC50 [1]: 4.51 nM
Kd [2]: 0.7 to 2.5 nM
